Results published in patent US20140193915, “COMPOSITIONS AND METHODS FOR CUSTOM SITE-SPECIFIC DNA RECOMBINASES” (Monsanto Technology, LLC, published 2014).

T1: sN-TALER IV-2 (GinH106Y-TALE13) (synthetic)
T1 chain: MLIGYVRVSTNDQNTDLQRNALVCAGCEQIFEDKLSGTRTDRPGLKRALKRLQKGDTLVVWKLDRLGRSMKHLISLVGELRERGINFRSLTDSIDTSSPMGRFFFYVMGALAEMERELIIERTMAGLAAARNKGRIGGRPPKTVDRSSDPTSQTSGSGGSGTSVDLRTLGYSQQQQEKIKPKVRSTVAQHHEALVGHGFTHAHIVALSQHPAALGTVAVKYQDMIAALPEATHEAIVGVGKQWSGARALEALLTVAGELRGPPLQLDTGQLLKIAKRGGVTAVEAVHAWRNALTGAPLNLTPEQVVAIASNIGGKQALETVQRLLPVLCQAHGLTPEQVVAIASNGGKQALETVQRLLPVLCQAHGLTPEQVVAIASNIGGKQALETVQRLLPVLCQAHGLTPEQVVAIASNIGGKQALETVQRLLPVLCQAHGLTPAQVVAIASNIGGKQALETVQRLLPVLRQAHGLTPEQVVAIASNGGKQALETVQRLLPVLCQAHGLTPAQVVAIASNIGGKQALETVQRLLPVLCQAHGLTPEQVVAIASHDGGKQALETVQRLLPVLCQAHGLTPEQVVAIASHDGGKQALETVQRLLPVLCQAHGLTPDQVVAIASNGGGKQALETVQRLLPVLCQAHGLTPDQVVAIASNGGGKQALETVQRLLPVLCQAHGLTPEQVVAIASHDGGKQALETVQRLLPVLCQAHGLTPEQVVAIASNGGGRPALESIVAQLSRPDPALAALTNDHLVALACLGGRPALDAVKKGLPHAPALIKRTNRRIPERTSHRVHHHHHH

T2: sN-TALER IV-3.2 (synthetic)
T2 chain: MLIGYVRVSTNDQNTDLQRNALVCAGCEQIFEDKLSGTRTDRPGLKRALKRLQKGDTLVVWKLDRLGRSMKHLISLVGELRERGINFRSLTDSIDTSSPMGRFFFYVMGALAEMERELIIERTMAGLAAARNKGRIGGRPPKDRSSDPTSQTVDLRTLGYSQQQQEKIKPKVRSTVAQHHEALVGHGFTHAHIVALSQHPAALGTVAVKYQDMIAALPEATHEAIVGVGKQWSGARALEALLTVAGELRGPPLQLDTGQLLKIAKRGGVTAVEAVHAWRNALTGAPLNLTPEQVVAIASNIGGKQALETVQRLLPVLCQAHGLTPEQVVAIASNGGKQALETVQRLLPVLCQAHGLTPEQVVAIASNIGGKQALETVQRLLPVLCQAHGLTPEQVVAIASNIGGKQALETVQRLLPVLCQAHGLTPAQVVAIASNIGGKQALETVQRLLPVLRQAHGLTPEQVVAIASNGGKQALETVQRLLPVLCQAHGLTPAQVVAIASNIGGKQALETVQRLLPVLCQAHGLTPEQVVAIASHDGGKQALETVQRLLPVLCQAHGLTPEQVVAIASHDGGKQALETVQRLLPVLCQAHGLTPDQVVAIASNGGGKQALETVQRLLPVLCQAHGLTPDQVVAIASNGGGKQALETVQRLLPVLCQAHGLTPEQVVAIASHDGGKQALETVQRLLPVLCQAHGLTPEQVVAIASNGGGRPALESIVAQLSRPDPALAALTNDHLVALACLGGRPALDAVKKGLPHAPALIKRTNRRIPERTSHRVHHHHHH

T3: sN-TALER IV-3 (synthetic)
T3 chain: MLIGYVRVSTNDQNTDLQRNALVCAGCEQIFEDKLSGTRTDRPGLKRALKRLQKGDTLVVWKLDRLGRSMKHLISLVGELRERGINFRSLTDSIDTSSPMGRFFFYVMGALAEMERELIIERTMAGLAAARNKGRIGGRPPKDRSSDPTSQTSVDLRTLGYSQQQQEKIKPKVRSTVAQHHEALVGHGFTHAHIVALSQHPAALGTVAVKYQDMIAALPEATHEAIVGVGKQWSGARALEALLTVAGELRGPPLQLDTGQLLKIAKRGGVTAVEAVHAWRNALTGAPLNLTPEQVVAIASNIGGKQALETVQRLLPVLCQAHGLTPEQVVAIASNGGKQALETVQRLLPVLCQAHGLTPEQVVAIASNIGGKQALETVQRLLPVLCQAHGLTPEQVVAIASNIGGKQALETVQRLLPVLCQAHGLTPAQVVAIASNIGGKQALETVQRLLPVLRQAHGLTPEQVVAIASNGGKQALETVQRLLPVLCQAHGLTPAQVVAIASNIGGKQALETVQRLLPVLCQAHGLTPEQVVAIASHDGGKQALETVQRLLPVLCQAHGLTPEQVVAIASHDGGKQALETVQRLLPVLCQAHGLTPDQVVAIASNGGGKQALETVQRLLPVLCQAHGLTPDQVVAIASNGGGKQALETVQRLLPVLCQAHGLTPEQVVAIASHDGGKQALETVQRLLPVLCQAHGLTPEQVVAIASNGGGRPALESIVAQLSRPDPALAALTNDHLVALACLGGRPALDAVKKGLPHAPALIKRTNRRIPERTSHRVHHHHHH

B1: Gin18TALE+0 (dsDNA)
DNA 1: AGAAGGTATTTATACCAAAACCATGGTTTACATATAAATACCTTCT
DNA 2: AGAAGGTATTTATATGTAAACCATGGTTTTGGTATAAATACCTTCT
B2: Gin20TALE+0 (dsDNA)
DNA 1: AGAAGGTATTTATATCCAAAACCATGGTTTACAGTATAAATACCTTCT
DNA 2: AGAAGGTATTTATACTGTAAACCATGGTTTTGGATATAAATACCTTCT

Columns and labels:
Test in all cases: cell_activity; E. coli
Settings in all cases: tags: 6-His
[1] = molecular target: T1, sN-TALER IV-2 (GinH106Y-TALE13)
Description: (§1) To test for recombination, E. coli DH5alpha cells were co-transformed with different combinations of TALER expression construct and TALER reporter construct pairs (Tables 6 and 7). The N-TALER expression and reporter constructs were in an approximate 1:1 mass ratio during the transformation. The co-transformed bacteria were plated on media with chloramphenicol, kanamycin, and X-gal then incubated at 37° C. for 18 to 36 hours. Control samples consisted of transformations using the reporter construct alone. Control transformants were similarly plated. The bacterial transformation protocol was either heat shock or electroporation per standard molecular biology techniques.

sN-TALER IV-3.2 = molecular target: T2, sN-TALER IV-3.2
Description: as §1

sN-TALER IV-3 = molecular target: T3, sN-TALER IV-3
Description: as §1

| Binder | activity [1] | activity (sN-TALER IV-3.2) | activity (sN-TALER IV-3) |
| --- | --- | --- | --- |
| B1 | 1 score | 3 score | 2 score |
| B2 | 1 score | 1 score | 1 score |
